Our source for the Kd values is publication PMC3433420, “Comprehensive Binary Interaction Mapping of SH2 Domains via Fluorescence Polarization Reveals Novel Functional Diversification of ErbB Receptors” (PLoS ONE, 2012).

Common to all, as to assay: peptide or protein array; SH2/PTB proteins spotted on aldehyde slides, rhodamine peptide titrated in buffer B (20 mM HEPES, 100 mM KCl, 0.1% Tween-20, 5 mM DTT, pH 7.8), 1 h at room temperature; replicate assays
Holding throughout (settings): both partners purified

The target in assay [1] is T1, PTPN11 tandem SH2 domains (human).
T1 construct: PTPN11, human; also called PTPN11-NC; source: bacterial expression, purified
T1 sequence (Q06124 whole entry, looked up): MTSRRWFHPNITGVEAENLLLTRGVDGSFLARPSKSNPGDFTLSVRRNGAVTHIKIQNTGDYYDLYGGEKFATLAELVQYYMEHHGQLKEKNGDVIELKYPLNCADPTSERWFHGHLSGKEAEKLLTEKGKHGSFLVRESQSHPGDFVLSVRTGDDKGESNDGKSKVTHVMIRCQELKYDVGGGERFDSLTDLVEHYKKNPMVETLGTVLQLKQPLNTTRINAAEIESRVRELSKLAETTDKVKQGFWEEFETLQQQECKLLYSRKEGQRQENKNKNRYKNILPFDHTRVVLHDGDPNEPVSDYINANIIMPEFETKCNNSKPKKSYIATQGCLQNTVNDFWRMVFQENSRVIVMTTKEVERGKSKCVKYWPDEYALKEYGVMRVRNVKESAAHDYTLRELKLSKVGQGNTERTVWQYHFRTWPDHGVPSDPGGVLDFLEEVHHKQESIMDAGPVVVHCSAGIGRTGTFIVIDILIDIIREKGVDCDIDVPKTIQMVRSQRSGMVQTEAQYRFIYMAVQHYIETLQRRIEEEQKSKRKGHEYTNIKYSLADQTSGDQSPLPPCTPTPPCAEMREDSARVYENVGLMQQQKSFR

For another assay, the target named is T2, GRAP2 SH2 domain (human, UniProt O75791 58-149).
T2 construct: GRAP2, human; source: bacterial expression, purified
T2 sequence (looked up): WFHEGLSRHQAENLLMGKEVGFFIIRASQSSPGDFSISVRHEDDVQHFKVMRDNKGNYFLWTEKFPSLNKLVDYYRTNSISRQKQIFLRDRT

The target of a further assay is T3, GRB10 SH2 domain (human, UniProt Q13322 493-574).
T3 construct: GRB10, human; source: bacterial expression, purified
T3 sequence (looked up): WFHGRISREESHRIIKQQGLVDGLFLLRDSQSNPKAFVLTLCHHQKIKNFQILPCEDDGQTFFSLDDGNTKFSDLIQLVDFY

The next assay concerns the target T4, SHF SH2 domain (human, UniProt Q7M4L6 323-418).
T4 construct: SHF, human; source: bacterial expression, purified
T4 sequence (looked up): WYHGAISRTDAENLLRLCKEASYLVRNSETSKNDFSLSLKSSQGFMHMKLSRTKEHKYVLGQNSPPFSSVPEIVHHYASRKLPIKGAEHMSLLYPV

The target in a further assay is T5, VAV1 SH2 domain (human, UniProt P15498 671-765).
T5 construct: VAV1, human; source: bacterial expression, purified
T5 sequence (looked up): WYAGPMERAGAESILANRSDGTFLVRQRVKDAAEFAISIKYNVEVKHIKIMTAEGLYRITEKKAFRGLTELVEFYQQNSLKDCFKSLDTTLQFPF

The target in the next assay is T6, PTK6 SH2 domain (human, UniProt Q13882 78-170).
T6 construct: PTK6, human; source: bacterial expression, purified
T6 sequence (Q13882 78-170): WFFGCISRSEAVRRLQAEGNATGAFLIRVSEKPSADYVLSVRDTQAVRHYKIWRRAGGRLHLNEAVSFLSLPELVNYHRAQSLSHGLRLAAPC

For a further assay, the target named is T7, ZAP70 tandem SH2 domains (human).
T7 construct: ZAP70, human; also called ZAP70-NC; source: bacterial expression, purified
T7 sequence (P43403 whole entry, the tested form may be a part): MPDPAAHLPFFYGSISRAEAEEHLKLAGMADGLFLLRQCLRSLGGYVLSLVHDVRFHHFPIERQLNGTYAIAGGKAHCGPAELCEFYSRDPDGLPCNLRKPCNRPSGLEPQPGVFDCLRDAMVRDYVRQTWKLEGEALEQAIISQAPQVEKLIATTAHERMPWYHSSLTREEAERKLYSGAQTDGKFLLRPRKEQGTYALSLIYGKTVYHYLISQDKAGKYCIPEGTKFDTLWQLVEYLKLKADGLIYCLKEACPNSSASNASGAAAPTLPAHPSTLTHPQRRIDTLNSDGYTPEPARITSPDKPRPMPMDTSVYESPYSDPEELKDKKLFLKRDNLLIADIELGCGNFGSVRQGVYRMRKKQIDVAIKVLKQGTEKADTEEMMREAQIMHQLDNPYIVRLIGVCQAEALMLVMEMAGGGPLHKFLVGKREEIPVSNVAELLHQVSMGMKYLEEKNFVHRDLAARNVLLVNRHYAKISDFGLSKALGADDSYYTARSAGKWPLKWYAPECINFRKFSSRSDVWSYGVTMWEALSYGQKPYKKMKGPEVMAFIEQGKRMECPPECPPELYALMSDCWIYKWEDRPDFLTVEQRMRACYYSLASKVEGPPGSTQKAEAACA

The next assay deals with SYK tandem SH2 domains (human).
In assay [2] the target is T8, PIK3R2 tandem SH2 domains (human, UniProt O00459 1-728).
T8 construct: PIK3R2, human; also called PIK3R2-NC; source: bacterial expression, purified
T8 sequence (O00459 whole entry, the tested form may be a part): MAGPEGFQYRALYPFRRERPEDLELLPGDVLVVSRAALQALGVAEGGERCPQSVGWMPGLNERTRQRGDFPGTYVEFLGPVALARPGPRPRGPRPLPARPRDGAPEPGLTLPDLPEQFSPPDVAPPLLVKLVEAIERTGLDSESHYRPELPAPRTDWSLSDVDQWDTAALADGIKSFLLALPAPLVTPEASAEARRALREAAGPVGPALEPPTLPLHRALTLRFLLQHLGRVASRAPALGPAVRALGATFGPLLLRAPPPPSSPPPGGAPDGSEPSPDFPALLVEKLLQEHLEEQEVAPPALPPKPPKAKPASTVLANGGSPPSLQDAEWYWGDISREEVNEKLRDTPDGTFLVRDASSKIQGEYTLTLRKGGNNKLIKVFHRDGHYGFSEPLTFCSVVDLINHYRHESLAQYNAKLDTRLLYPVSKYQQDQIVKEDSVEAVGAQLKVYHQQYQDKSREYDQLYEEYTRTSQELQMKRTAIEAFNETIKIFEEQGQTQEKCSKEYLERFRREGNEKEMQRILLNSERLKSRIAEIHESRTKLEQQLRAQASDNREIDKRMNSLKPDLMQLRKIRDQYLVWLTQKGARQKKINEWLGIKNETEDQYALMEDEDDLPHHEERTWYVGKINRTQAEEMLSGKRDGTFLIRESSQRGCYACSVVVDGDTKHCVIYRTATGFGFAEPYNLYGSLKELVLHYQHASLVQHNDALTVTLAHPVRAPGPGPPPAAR

Another assay deals with T9, BLNK SH2 domain (human, UniProt Q8WV28 346-453).
T9 construct: BLNK, human; source: bacterial expression, purified
T9 sequence (looked up): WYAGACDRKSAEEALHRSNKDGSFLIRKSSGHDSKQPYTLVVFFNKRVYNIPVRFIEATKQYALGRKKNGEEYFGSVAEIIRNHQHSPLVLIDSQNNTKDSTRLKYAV

“And” between values parts separate entries of the source, which are not always exact repeats. Equal values may be shown once. Non-standard residues stand in square brackets, D forms with d. No end group written: not given here. pY = N[C@@H](Cc1ccc(OP(=O)(O)O)cc1)C(=O)O; Rhodamine = not defined here

B1: ErbB2 pY1127 phosphopeptide, rhodamine-labelled, for protein microarrays (peptide)
chain: Rhodamine-ETDG[pY]VAPLTCSD
modifications: reading uncertain
On to B1, for which the Kd was 1150 nM and 1530 nM in assay [1]; 19400 nM in the assay with GRAP2 SH2 domain; 1900 nM and 2340 nM with GRB10 SH2 domain; 1020 nM in the assay with SHF SH2 domain; 186 nM and 91.6 nM with VAV1 SH2 domain; 4180 nM and 1570 nM with PTK6 SH2 domain. In addition, the Kd with ZAP70 tandem SH2 domains was 2010 nM and 2410 nM; with SYK tandem SH2 domains it was 1300 nM and 957 nM; in assay [2], 10.6 nM and 4.66 nM; in the assay with BLNK SH2 domain, 1950 nM and 1250 nM.

In general, Kd refers to the equilibrium constant for the complex coming apart. Low readings indicate a tighter complex, high ones a looser complex.
